Source: patent US20150216795A1 (SANOFI, priority 2012, published 2015)

Tests used:
[1] = test system: patients with metastatic colorectal cancer (MCRC)
Source text: Each randomized patient was to be treated until disease progression, death, or unacceptable toxicity.
Treatment arms were evenly balanced for demographics, disease characteristics and prior anti-cancer treatments, including prior exposition to bevacizumab.
Patients received a median of 9 cycles of ZALTRAP/FOLFIRI or 8 cycles of placebo/FOLFIRI.

[2] = test system: patients with metastatic colorectal cancer (MCRC); test: EFC10262 (VELOUR) randomized double-blind phase 3 study: efficacy (OS, PFS, response rate);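 note: Placebo-controlled comparison, both arms on FOLFIRI every 2 weeks until progression or intolerable toxicity, in patients progressing on or within 6 months after oxaliplatin-based combination chemotherapy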
Source text: Each randomized patient was to be treated until disease progression, death, or unacceptable toxicity. […] The predefined statistical significance level for this final analysis was 0.0466 after adjusting the type I error spent for the two interim analyses using the O'Brien-Fleming spending function.
The study included one formal interim analysis, planned for the purpose of efficacy, when 561 death events (65% information time) had occurred. Upon request of the independent Data Monitoring Committee (DMC), an additional interim analysis of OS was performed to provide an early evaluation of the benefit-risk ratio, when 315 death events (36.5% information fraction) had occurred.
A total of approximately 863 deaths were required to detect 20% hazard rate reduction in OS with 90% power using the two-sided log rank test at an overall 0.0499 alpha level. The median survival times was expected to be 11 months for the control group. The overall alpha level was split between overall survival (0.0499) and progression-free survival as a secondary efficacy endpoint (0.0001).
Approximately 1200 patients (i.e. 600 patients per treatment group) were planned to be randomized. Treatment assignment was stratified according to prior therapy with bevacizumab (yes or no), and ECOG performance status (PS) (0 vs 1 vs 2).
The enrolment started in November 2007 and was completed in March 2010. A total of 1226 patients were randomized. […] Treatment arms were evenly balanced for demographics, disease characteristics and prior anti-cancer treatments, including prior exposition to bevacizumab.
Immediately after, patients received irinotecan, 5-FU and leucovorin (FOLFIRI regimen). This treatment was repeated every 2 weeks.
Study 1 was a randomized, double-blind, placebo-controlled study in patients with metastatic colorectal cancer (mCRC) who are resistant to or have progressed during or within 6 months of receiving oxaliplatin-based combination chemotherapy, with or without prior bevacizumab. A total of 1226 patients were randomized (1:1) to receive either ZALTRAP (N=612; 4 mg per kg as a 1 hour intravenous infusion on day 1) or placebo (N=614), in combination with 5-fluorouracil plus irinotecan [FOLFIRI: irinotecan 180 mg per m2 IV infusion over 90 minutes and leucovorin (dl racemic) 400 mg per m^2 intravenous infusion over 2 hours at the same time on day 1 using a Y-line, followed by 5-FU 400 mg per m^2 intravenous bolus, followed by 5-FU 2400 mg per m^2 continuous intravenous infusion over 46-hours]. The treatment cycles on both arms were repeated every 2 weeks. Patients were treated until disease progression or unacceptable toxicity. The primary efficacy endpoint was overall survival. Treatment assignment was stratified by the ECOG performance status (0 versus 1 versus 2) and according to prior therapy with bevacizumab (yes or no).

[3] = adverse reaction, N = 611, listed as ZALTRAP/FOLFIRI
[4] = compilation of clinical and laboratory data, N = 611, listed as ZALTRAP/FOLFIRI
[5] = Kaplan-Meier, IRC, ITT population
[6] = by IRC, evaluable patient population N = 531
[7] = overall survival, Kaplan-Meier, ITT population

Ziv-aflibercept/Folfiri: ziv-aflibercept 4 mg/kg in combination with FOLFIRI (folinic acid, 5-fluorouracil and irinotecan) given intravenously every 2 weeks
Grade 4 hypertension (hypertensive crisis) ([1]; 1 patient): 0.2% | Grade 3 compromised wound healing ([1]; 2 patients): 0.3% | Nephrotic syndrome ([1]; 2 patients): 0.5% | fistulas (anal, enterovesical, enterocutaneous, colovaginal, intestinal sites) ([1]; 9 of 611 patients with mCRC): 1.5% | Grade 3-4 ATE ([1]; 11 patients): 1.8% | Patients with any TEAE ([1]; Safety population N = 611): 606 (99.2%) number (%) of patients | Patients with any TEAE leading to death ([1]; Safety population N = 611): 37 (6.1%) number (%) of patients | Patients with any TEAE leading to permanent treatment discontinuation ([1]; Safety population N = 611): 164 (26.8%) number (%) of patients | Patients with any TEAE leading to premature treatment discontinuation ([1]; Safety population N = 611): 119 (19.5%) number (%) of patients | Patients with any grade 3-4 TEAE ([1]; Safety population N = 611): 510 (83.5%) number (%) of patients | Patients with any related TEAE leading to death ([1]; Safety population N = 611): 6 (1.0%) number (%) of patients | Patients with any serious TEAE ([1]; Safety population N = 611): 294 (48.1%) number (%) of patients | Cycle delays >7 days ([1]; Study 1): 60 % of patients | Infections, Grade 3-4 ([1]; Study 1): 12% | Infections, all grades ([1]; Study 1): 46% | Alopecia (PT), All Gr ([1]; TEAE, safety population): 26.8 % of patients | Asthenic condition (HLT), All Gr ([1]; TEAE, safety population): 60.4 % of patients | Asthenic condition (HLT), Gr 3/4 ([1]; TEAE, safety population): 16.9 % of patients | Constipation (PT), All Gr ([1]; TEAE, safety population): 22.4 % of patients | Constipation (PT), Gr 3/4 ([1]; TEAE, safety population): 0.8 % of patients | Decrease appetite (PT), All Gr ([1]; TEAE, safety population): 31.9 % of patients | Decrease appetite (PT), Gr 3/4 ([1]; TEAE, safety population): 3.4 % of patients | Dehydration (PT), All Gr ([1]; TEAE, safety population): 9.0 % of patients | Diarrhea (PT), All Gr ([1]; TEAE, safety population): 69.2 % of patients | Dysphonia (PT), All Gr ([1]; TEAE, safety population): 25.4 % of patients | Epistaxis (PT), All Gr ([1]; TEAE, safety population): 27.7 % of patients | GI and abdominal pains (HLT), All Gr ([1]; TEAE, safety population): 34.0 % of patients | GI and abdominal pains (HLT), Gr 3/4 ([1]; TEAE, safety population): 5.4 % of patients | Headache (PT), All Gr ([1]; TEAE, safety population): 22.3 % of patients | Hypertension (grouping), All Gr ([1]; TEAE, safety population): 41.4 % of patients | Hypertension (grouping), Gr 3/4 ([1]; TEAE, safety population): 19.3 % of patients | Infections (SOC), All Gr ([1]; TEAE, safety population): 46.2 % of patients | Musculoskeletal & connective pain & discomfort (HLT), All Gr ([1]; TEAE, safety population): 23.1 % of patients | Musculoskeletal & connective pain & discomfort (HLT), Gr 3/4 ([1]; TEAE, safety population): 1.3 % of patients | Nausea (PT), All Gr ([1]; TEAE, safety population): 53.4 % of patients | Palmar plantar erythrodysaesthesia (PT), All Gr ([1]; TEAE, safety population): 11.0 % of patients | Palmar plantar erythrodysaesthesia (PT), Gr 3/4 ([1]; TEAE, safety population): 2.8 % of patients | Skin hyperpigmentation (PT), All Gr ([1]; TEAE, safety population): 8.2 % of patients | Skin hyperpigmentation (PT), Gr 3/4 ([1]; TEAE, safety population): 0 % of patients | Stomatitis & ulceration (HLT), All Gr ([1]; TEAE, safety population): 54.8 % of patients | Stomatitis & ulceration (HLT), Gr 3/4 ([1]; TEAE, safety population): 13.7 % of patients | Vomiting (PT), All Gr ([1]; TEAE, safety population): 32.9 % of patients | Weight decrease (PT), All Gr ([1]; TEAE, safety population): 31.9 % of patients | Weight decrease (PT), Gr 3/4 ([1]; TEAE, safety population): 2.6 % of patients | Abdominal Pain Upper, All grades ([1]; adverse reaction, N = 611): 11% | Abdominal Pain Upper, Grades 3-4 ([1]; adverse reaction, N = 611): 1% | Abdominal Pain, All grades ([1]; adverse reaction, N = 611): 27% | Abdominal Pain, Grades 3-4 ([1]; adverse reaction, N = 611): 4% | Asthenia, All grades ([1]; adverse reaction, N = 611): 18% | Asthenia, Grades 3-4 ([1]; adverse reaction, N = 611): 5% | Decreased Appetite, All grades ([1]; adverse reaction, N = 611): 32% | Decreased Appetite, Grades 3-4 ([1]; adverse reaction, N = 611): 3% | Dehydration, All grades ([1]; adverse reaction, N = 611): 9% | Diarrhea, All grades ([1]; adverse reaction, N = 611): 69% | Dysphonia, All grades ([1]; adverse reaction, N = 611): 25% | Dyspnea, All grades ([1]; adverse reaction, N = 611): 12% | Epistaxis, All grades ([1]; adverse reaction, N = 611): 28% | Fatigue, All grades ([1]; adverse reaction, N = 611): 48% | Fatigue, Grades 3-4 ([1]; adverse reaction, N = 611): 13% | Headache, All grades ([1]; adverse reaction, N = 611): 22% | Headache, Grades 3-4 ([1]; adverse reaction, N = 611): 2% | Hemorrhoids, All grades ([1]; adverse reaction, N = 611): 6% | Hemorrhoids, Grades 3-4 ([1]; adverse reaction, N = 611): 0% | Hypertension, All grades ([1]; adverse reaction, N = 611): 41% | Hypertension, Grades 3-4 ([1]; adverse reaction, N = 611): 19% | Leukopenia, All grades ([1]; adverse reaction, N = 611): 78% | Leukopenia, Grades 3-4 ([1]; adverse reaction, N = 611): 16% | Neutropenia, All grades ([1]; adverse reaction, N = 611): 67% | Oropharyngeal Pain, All grades ([1]; adverse reaction, N = 611): 8% | Palmar-Plantar Erythrodysesthesia Syndrome, All grades ([1]; adverse reaction, N = 611): 11% | Palmar-Plantar Erythrodysesthesia Syndrome, Grades 3-4 ([1]; adverse reaction, N = 611): 3% | Proctalgia, All grades ([1]; adverse reaction, N = 611): 5% | Rectal Hemorrhage, All grades ([1]; adverse reaction, N = 611): 5% | Rhinorrhea, All grades ([1]; adverse reaction, N = 611): 6% | Rhinorrhea, Grades 3-4 ([1]; adverse reaction, N = 611): 0% | Skin Hyperpigmentation, All grades ([1]; adverse reaction, N = 611): 8% | Skin Hyperpigmentation, Grades 3-4 ([1]; adverse reaction, N = 611): 0% | Stomatitis, All grades ([1]; adverse reaction, N = 611): 50% | Stomatitis, Grades 3-4 ([1]; adverse reaction, N = 611): 13% | Thrombocytopenia, All grades ([1]; adverse reaction, N = 611): 48% | Thrombocytopenia, Grades 3-4 ([1]; adverse reaction, N = 611): 3% | Urinary Tract Infection, All grades ([1]; adverse reaction, N = 611): 9% | Weight decreased, All grades ([1]; adverse reaction, N = 611): 32% | Weight decreased, Grades 3-4 ([1]; adverse reaction, N = 611): 3% | Dehydration, Grades 3-4 [1, 3]: 4% | Diarrhea, Grades 3-4 [1, 3]: 19% | Neutropenia, Grades 3-4 [1, 3]: 37% | onset of Grade 3-4 hypertension during the first two cycles of treatment ([1]; among patients developing Grade 3-4 hypertension): 54% | Proteinuria, All grades [1, 4]: 62% | Proteinuria, Grades 3-4 [1, 4]: 8% | Grade 3-4 hemorrhagic events ([1]; including gastrointestinal hemorrhage, hematuria, post-procedural hemorrhage): 3% | ALT increased, All grades ([1]; laboratory finding, N = 611): 50% | ALT increased, Grades 3-4 ([1]; laboratory finding, N = 611): 3% | AST increased, All grades ([1]; laboratory finding, N = 611): 62% | AST increased, Grades 3-4 ([1]; laboratory finding, N = 611): 3% | Serum creatinine increased, All grades ([1]; laboratory finding, N = 611): 23% | Serum creatinine increased, Grades 3-4 ([1]; laboratory finding, N = 611): 0% | Arterial thromboembolic events (ATE) ([1]; patients with mCRC): 2.6% | Grade 3-4 VTE ([1]; patients with mCRC): 8% | Grade 3-4 febrile neutropenia ([1]; patients with mCRC): 4% | Grade 3-4 neutropenic infection/sepsis ([1]; patients with mCRC): 1.5% | Grade 3 hypertension ([1]; patients with mCRC): 19% | Pulmonary embolism ([1]; patients with mCRC): 5% | bleeding/hemorrhage (all grades) ([1]; patients with mCRC): 38% | severe hypersensitivity reactions ([1]; patients with mCRC): 0.3% | venous thromboembolic events (VTE) ([1]; patients with mCRC): 9% | PFS, Probability of surviving (99.99% CI), 3 months [2, 5]: 0.793 | PFS, Probability of surviving (99.99% CI), 6 months [2, 5]: 0.573 | PFS, Probability of surviving (99.99% CI), 9 months [2, 5]: 0.313 | PFS, Probability of surviving (99.99% CI), 12 months [2, 5]: 0.166 | PFS, Probability of surviving (99.99% CI), 18 months [2, 5]: 0.051 | Progression Free Survival: Number of events, n (%) ([2]; Study 1, IRC): 393 (64.2%) n (%) | Overall Survival: Number of deaths, n (%) ([2]; Study 1, N = 612): 403 (65.8%) n (%) | Best Overall Response: Not evaluable, % [2, 6]: (4.0%) | Best Overall Response: Partial response, % [2, 6]: (19.8%) | Best Overall Response: Progressive disease, % [2, 6]: (10.4%) | Best Overall Response: Stable disease, % [2, 6]: (65.9%) | Overall Response: Responders (Complete response or Partial response), % [2, 6]: (19.8%) | Survival probability (95.34% CI), 3 months [2, 7]: 0.931 | Survival probability (95.34% CI), 6 months [2, 7]: 0.819 | Survival probability (95.34% CI), 9 months [2, 7]: 0.687 | Survival probability (95.34% CI), 12 months [2, 7]: 0.561 | Survival probability (95.34% CI), 18 months [2, 7]: 0.385 | Survival probability (95.34% CI), 24 months [2, 7]: 0.280 | overall survival HR (95% CI) ([2]; patients who received prior bevacizumab): 0.86 | overall survival HR (95% CI) ([2]; patients without prior bevacizumab exposure): 0.79
